# Data taken from paper PMC9404787, “The Peptide Methionine Sulfoxide Reductase (MsrAB) of Haemophilus influenzae Repairs Oxidatively Damaged Outer Membrane and Periplasmic Proteins Involved in Nutrient Acquisition and Virulence” (Antioxidants, 2022).
# Columns and labels:
# Assay in all cases: purified protein
# Cc1ccc([S@+](C)[O-])cc1 = conditions: 20 uM rTrx, 5 uM rTrxR, 0.2 mM NADPH, 50 mM sodium phosphate pH 7.5, 37 °C, MsrA domain
# Cc1ccc([S+](C)[O-])cc1 = conditions: 20 uM rTrx, 5 uM rTrxR, 0.2 mM NADPH, 50 mM sodium phosphate pH 7.5, 37 °C, racemate, both domains
# Cc1ccc([S@@+](C)[O-])cc1 = conditions: 20 uM rTrx, 5 uM rTrxR, 0.2 mM NADPH, 50 mM sodium phosphate pH 7.5, 37 °C, MsrB domain
substance,measurement,setting,value
rMsrAB (Haemophilus influenzae Rd KW20),Km,Cc1ccc([S@+](C)[O-])cc1,3620 ± 550 µM
same,Vmax,Cc1ccc([S@+](C)[O-])cc1,0.52 µmol/min/mg
same,kcat,Cc1ccc([S@+](C)[O-])cc1,0.312 ± 0.12 s⁻¹
same,kcat/Km,Cc1ccc([S@+](C)[O-])cc1,86.1 M⁻¹ s⁻¹
same,Km,Cc1ccc([S+](C)[O-])cc1,2960 ± 440 µM
same,Vmax,Cc1ccc([S+](C)[O-])cc1,0.34 µmol/min/mg
same,kcat,Cc1ccc([S+](C)[O-])cc1,0.204 ± 0.06 s⁻¹
same,kcat/Km,Cc1ccc([S+](C)[O-])cc1,68.9 M⁻¹ s⁻¹
same,Km,Cc1ccc([S@@+](C)[O-])cc1,2310 ± 350 µM
same,Vmax,Cc1ccc([S@@+](C)[O-])cc1,0.26 µmol/min/mg
same,kcat,Cc1ccc([S@@+](C)[O-])cc1,0.156 ± 0.06 s⁻¹
same,kcat/Km,Cc1ccc([S@@+](C)[O-])cc1,67.5 M⁻¹ s⁻¹
